Test results from publication PMC7050210 (Nature, 2020).
Like-named read-outs stand apart in the source and are kept apart here. Non-standard residues stand in square brackets, D forms with d. No end group written: not given here. pS = N[C@@H](COP(=O)(O)O)C(=O)O

T1: β-TRCP1 (monomeric form, from residue 175 to C-terminus) (human, UniProt Q9Y297 175-605)
T1 sequence: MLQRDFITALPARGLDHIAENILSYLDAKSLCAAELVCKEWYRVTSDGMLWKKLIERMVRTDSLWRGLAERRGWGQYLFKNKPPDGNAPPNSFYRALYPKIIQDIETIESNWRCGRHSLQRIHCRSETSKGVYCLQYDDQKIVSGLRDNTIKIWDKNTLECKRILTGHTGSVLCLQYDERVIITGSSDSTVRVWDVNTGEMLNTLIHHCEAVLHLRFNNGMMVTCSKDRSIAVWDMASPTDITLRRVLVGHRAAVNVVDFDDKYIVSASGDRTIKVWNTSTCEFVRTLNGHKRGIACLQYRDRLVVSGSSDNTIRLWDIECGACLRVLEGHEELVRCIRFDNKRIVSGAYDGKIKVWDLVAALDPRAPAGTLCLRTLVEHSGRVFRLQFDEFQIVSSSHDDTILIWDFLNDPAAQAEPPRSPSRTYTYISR


Tests used:
[1] = molecular target: T1, β-TRCP1 (monomeric form, from residue …); test: cryo-EM structure
[2] = molecular target: T1, β-TRCP1 (monomeric form, from residue …); test: cryo-EM structure; remark: listed apart in the source

| Binder | binding result [1] | binding result [2] |
| --- | --- | --- |
| KKERLLDDRHD[pS]GLD[pS]MKDEE [IκBα-derived phosphopeptide KKERLLDDRHD(pS)GLD(pS)MKDEE] | binds |  |
| CKKERLLDDRHDSGLDSMKDEE [IκBα-derived substrate peptide with N-terminal Cys (cryo EM peptide)] |  | binds |
